Laboratory results taken from paper doi:10.1101/2020.10.18.344481.

Key:
[1] = target: Thiomicrospira Cas6-RT-Cas1 fusion protein (Thiomicrospira); assay: cryo-EM structure
[2] = target: Thiomicrospira Cas2 (Thiomicrospira); assay: cryo-EM structure

Substance | stoichiometry N [1] | stoichiometry N [2]
Thiomicrospira Cas6-RT-Cas1 fusion protein (enzyme) | 2 | 
Thiomicrospira Cas2 (natural protein) |  | 2
